According to PMC8334348:

Target: Brucella abortus peptidoglycan hydrolase inhibitor A (PhiA), mature periplasmic form (Brucella abortus)
Test: SEC-MALS

“Brucella abortus peptidoglycan hydrolase inhibitor A (PhiA), mature periplasmic form (natural protein)” showed a stoichiometry N of 4.
